Measurements from the nanobody polyreactivity screen of Harvey et al. (2022).

assay: yeast display, Sf9 membrane polyspecificity reagent, FACS + sequencing; frameworks hold sequencing errors
In short: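 A nanobody's polyreactivity label depends on the gate it was sorted from. Yeast display cells were stained with 10% biotinylated, detergent-solubilized Sf9 membrane reagent for 1 hour at 4 °C, enriched on streptavidin microbeads and sorted by FACS. The low and high (top ~1%) gates were set on anti-HA fluorescence for expression and streptavidin fluorescence for reagent binding.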

| Sequence | polyreactivity (PSR sort gate) |
| --- | --- |
| QVQLVESGGGLVQAGGSLRVSCAASGRTFKKYTMGLYRQAAGKERELVPVITSGGSTYYADSVKGRFTISRDNAKNTVYLQMNSLKPEDTAVYYWAADLYYNSYGRYGRYYYWGQGTQVTVSS | high polyreactivity |
| QVQLVESGGGLVQAGGSLRVSCAASGRTFKYYARGWYRQAPGKARELVAAISGSGGSTYYADSVKGRFTISRDNAKNTVYLQMNSLKPEDTAVYYCAAAGKETSRNAYDSWGQGTQETVSS | high polyreactivity |
| QVQLVESGGGLVQAGGSLRVSCAASGRTFRGYSMGWSRPAPGKERELVAAISWRGGTTYYADSVKGRFTISRDNAKNTVYLQMNSLKPEDTAVYYCAARRYRISKTSGYWGQGTQVTVSS | high polyreactivity |
| QVQLVESGGGLVQAGGSLRVSCAASGRTFRYYEMGWYRQAPGKERELVAAISWSGGSTYYADSVKGRFTISRDNAKNSVYLQMNSLKPEDTAVYYCGAPKPIYSYPTYYYWGQGTQVTVSS | high polyreactivity |
| QVQLVESGGGLVQAGGSLRVSCAASGRTFYFNAMGWYRQAPGKERELVAVISWSGGRTYYADSVKGRFTISRDNAKNTVYLLMNSLKPEDTAVYYCAADYQSGGSRYDYWGQGTQVTVSS | high polyreactivity |
| QVQLVESGGGLVQAGGSLRVSCAASGSIFCPYTMGWNRQAPGKERELVAAITRSGGSTYYADSVKGRFTISRDNGKNTVYLQMNSLKPEDTAVFYCAARGQAYSGDRMYYWGQGTQVTVSS | high polyreactivity |
| QVQLVESGGGLVQAGGSLRVSCAASGSTIITNAMGWYRQATGKERELVAAITYSTGATYYADSVKGRFTISRDNAKNTVYLQMNSQKPEDTACYYCAALLYFFMIDYWGQGTQETVSS | low polyreactivity |
| QVQLVESGGGLVQAGGSLRVSCAASGTIFRRYAMGWYRQAPGKERELVATISSCTTTNYADSVKGRFTISRDNAKNTVYLQMNSLKPEDTAVYYCAADDYYEFYWGQGTQVTVSS | high polyreactivity |
| QVQLVESGGGLVQAGGSLRVSCASSGRTFSRNAMGWYRQAPGKEMELVATISRRGGSTNYADSVKGRFTISRDNAKNTVYLQMNSMKQEDTAVYYCAAGYRVRDDKVYGIVGPMDYWGQGTQVNVSS | high polyreactivity |
| QVQLVESGGGLVQAGGSLRVSFAASGLTFFQYGMGWYRQAPGKERELVASITRSRGRTNYADSVKGRFTISRDNAKYTVYLQMNSLKPEDTAVYYCAAYYYGSSAYGYGYNYWGQGTQVTVSS | high polyreactivity |
| QVQLVESGGGLVQAGGSLRVTCAASGNIFGYYAMGWYRQAPGKERELDAAISSGGTTSYADSVKGRFTISRDNAKNTVYLQLNSLKPEDTAVYYCAARDWYDGFYYWGQGTQVTVSS | low polyreactivity |
| QVQLVESGGGLVQAGGSLRYSCAASGSTSAWYAMGWYRQAPGKERELVAAITESGGDTYYADSVKGRFTISRDNAKNTVYLQMNSLKPEDTAVYYCNARGSARKSVPYPLEYWGQGTQVTVSS | high polyreactivity |
| QVQLVESGGGLVQAGGSLSISCAASGLSFSVNAMGWYRPAPGKEREFVAAISSSGGRTYYADSVKGRFTISRDHAKNTVYLQMNSLKPEYTAGYYCATAQGSRVDYWGQGTQVTLSS | high polyreactivity |
| QVQLVESGGGLVQAGGSLSLICAASGFIYYTMGWYRQAPGKEWELVAAISRSGGSTYYADSVKGRFTISRDNAKNTVYLQMNSLKPEDTAVYYCAARRPYRDGYDYWGQGTQVTVSS | high polyreactivity |
| QVQLVESGGGLVQAGGSLSLICAASGSTFSQYFMGLYRQAPGKDRELVAGISSRGTSTYYADSVKGRFTISRDNAQNTFYLQMNSLKPEDTAVFYCNRGKLYNTYDYWGQGTQVNVSS | low polyreactivity |
| QVQLVESGGGLVQAGGSLSLICAASGSTILYNTMGWYRQAPGKERELVATITSRGDRTYYADSVKGRFTISRDNAKNTVYLQMNSLKPDDTAVYYCNAYGGNYPQSYRYYYWGQGTQVTVSS | low polyreactivity |
| QVQLVESGGGLVQAGGSLSLICAAYGSTLGVYAMGWYIQAPGKERELVAAISSGGSTTYADSVKGRFTISRDNAKNTVYLQMNSLKPEDTAVYYCAADRYEGYVTWYWWGAYNYDYWGQGTQVTVSS | high polyreactivity |
| QVQLVESGGGLVQAGGSLSLICADSGSSFYGYAMGWYRQAPGKERELVAAITSSGGSTYYADSVKGRFTISRDNAKNTVYLQMNSLKPEDTAVYYCAARGSLGGWGLRYYWGQGTQVTVSS | high polyreactivity |
| QVQLVESGGGLVQAGGSLSLMCAASGRTLRSYAMGWYRQAPGKEMEFVASISRSGGSTYYADSVKGRFTISRDNAKNTVYLQMNSLKPEDTAVYYCAAGVRYPYRYYYWGQGTQVTVSS | high polyreactivity |
| QVQLVESGGGLVQAGGSLSLRCASYGSISFINAMGWYRQAPGKEMELVARITWSGGTTYYADSVKGRFTISRDNAKNTVYLQMNSLKPEDTAVYYCAAYIWAPLEGYEYDYWGQGTQVTVSS | high polyreactivity |
| QVQLVESGGGLVQAGGSLSLSCAASGFIFHYYAMAGYRQAPGKERELVAAISKTVGSTYYADSVKGRFTISRDNAKNTVYLQMNSRKPEDTAVYYCAVGYSRRNTPYDYWGQGTQVTVSS | high polyreactivity |
| QVQLVESGGGLVQAGGSLSLSCAASGFIFNHYAMRWYRQAPGTETEFVAAISLSGGSTYYAVSVKGRFTISRDNAKKTVYLQRNSLKPEDTAVYYCAASYNGLWHGDYDYWGHGTQVTVSS | low polyreactivity |

| Sequence | polyreactivity (PSR sort gate) |
| --- | --- |
| QVQLVESGGGLVQAGGSLSLSCAASGFIFRGNGMGWYRQAPGKERELVAAIDSTDSTNYADSVKGRFTISRDNAKNTVYLQMNSLKPEDTAVYYCAAGVSWYGPYDYLWFYAFDYWGQGTQVTVSS | low polyreactivity |
| QVQLVESGGGLVQAGGSLSLSCAASGFIITRNAMGWYRQAPGKEWEFVARISRSSGSTYYADSVKGRFTISRDNAKITVYLKMKSLTPDDTAVYYCNTRVAGIYGFGSYDDWGQGTQVTVSS | high polyreactivity |
| QVQLVESGGGLVQAGGSLSLSCAASGFTFFYNAMGWYRQAPGKERELVASITVSTSGTDYADSVKGRFTISLDNAKNTVYLQMNSLKPEDTAVYYCATDQVLVYSDLQDTAYYWGQGTQVTVSS | low polyreactivity |
| QVQLVESGGGLVQAGGSLSLSCAASGFTFTRYVMGWYRQAPGKERELVAAISINGGRTYYADSVKGSFTNSRDNAKNTVYLQMNSLKPEDTAVYYWAAYKTYGSKYVFVDPGEYYYWGQGTQVTVSS | high polyreactivity |
| QVQLVESGGGLVQAGGSLSLSCAASGITFVIYVMGWYRQAPGKERELVAAISWIGGSTYYADSVKGRFTISRDYAKNTVYLQMNSLKPEDTAVYYCATDYVVVVSTGYDYWGQGTQVTVSS | low polyreactivity |
| QVQLVESGGGLVQAGGSLSLSCAASGITLYRYVMGWYRQAPWKERELVADNTGRGTSTYYADSVKGRFTISRDNAKNTVYFQLNSLKPEDTAVYYCNAEYTKTGALVIPYTYYYAEDYWGQATQVTVSS | low polyreactivity |
| QVQLVESGGGLVQAGGSLSLSCAASGLTFDTNAMGWYRQAPGKERELVAAITDSGDSTYYADSVKGRFTISRDNEKNTVYLQMNSLKPEDTAVYYCAARRSNLAWGRRRMYYWGQGTQVTVSS | high polyreactivity |
| QVQLVESGGGLVQAGGSLSLSCAASGNTFYGYAMGWYRQAPGKERELVASITLSGDSTYYADSVKGRFTISRDNAKNTVYLQMNSLKPEDTAVFDCAGVYTYPLGYYHYTYDYWGQGTQVTVSS | low polyreactivity |
| QVQLVESGGGLVQAGGSLSLSCAASGRIFSNYAMGWYRQAPGKERELVADISSRGVSTYYADSVKGRFTISRDNAKNPGYLQMKSLKPEDTAVYYCAARGYQRQYYYWGQGTQVTVSS | high polyreactivity |
| QVQLVESGGGLVQAGGSLSLSCAASGRTFIFYAMGWYRQAPGKERELVAAISSSGSGTYYADSVKGRFTISRDNAKNTVYLQMNSLKPEDTAVYYCAADVVNSRRRPKYGYWGQGTQVTVSS | low polyreactivity |
| QVQLVESGGGLVQAGGSLSLSCAASGRTFVPYAMGWDRQAPGKERELVAAISRSGSSTYYADSVKGRFTISRDNAKNTVYLQMNSLKPEDTAVYYCAADPVYYYIGDFNYWGQGTQVTVSS | high polyreactivity |
| QVQLVESGGGLVQAGGSLSLSCAASGRTFWVYAMGWYRQAPGKERELVAAIRRGGITNYADSVKGRFTNSRDNAKNTVYLQMNCLKPEDTALYYCDTDKYGYLTRYYYWGQGTQVTVSS | low polyreactivity |
| QVQLVESGGGLVQAGGSLSLSCAASGRTFYVYAMGWYIQAPGKERELVATISRGGSTTYADSVKGLFTISRDNAKNTVYLQMNSLKPEDTAVYYCATELLGGRRTVAYFWGQGSQVTVSS | low polyreactivity |
| QVQLVESGGGLVQAGGSLSLSCAASGRTFYYYAMGWYRQAPGKERELVAAITSRGTSTYYADSVKGRFTISRDNAKNTVYLQMNSLKPEDTAVYYCAAGFISYYGNCYDYWGQGTQVTVSS | high polyreactivity |
| QVQLVESGGGLVQAGGSLSLSCAASGRTIIRNAMGWYRQAPGKERELVAAINSGGITNYADSVKGRFTISRDNAKNTVYLKMNSLKPEDTAVYYCNARGSYPPYRSYGYWGQGTQVTVSS | low polyreactivity |
| QVQLVESGGGLVQAGGSLSLSCAASGRTLYQYAMGWSRQAPGKERELVAAITTSGGSTYYADSVKGRFTISRDNAKNTVYLQMNSLKPEDTAVYYCAAPYTGYRERGYYKSDYWGQGTQVTESS | low polyreactivity |
| QVQLVESGGGLVQAGGSLSLSCAASGSIIPDYAMGWYRQAPGKERELVAAITWRDDSTYYADSVKGRFTISRDNAKNTVYLQMNSLKPEDTAVYYCNASALDPLYAKDDYWGQGTQVTVSS | low polyreactivity |
| QVQLVESGGGLVQAGGSLSLSCAASGSILAVYTMGWYRQAPGTVRELVAAITVSSGRTYYADSVKGRFTISRDNAKNTVYLQMNSLKPEDTSVYYCAALYWRSKLRPYEYWGQGTQVTVSS | high polyreactivity |
| QVQLVESGGGLVQAGGSLSLSCAASGSPFLYYTMGWYRQAPGKERELVATISRDGSTNYADSVKGRFTISRDNAKNSVYLQMNSLKPEDTAVYYCAAARDSIGYGQYDYWGQGTQVTVSS | low polyreactivity |
| QVQLVESGGGLVQAGGSLSLSCAASGSTFDRNAMGWYRQAPGKERELVAGISFSGGSTYYADSVKGRFTISRDNAKNTVYLQMNSLKPEDTAVYYCAASTYQPGAVPFDYWGQGTQVTVSS | low polyreactivity |
| QVQLVESGGGLVQAGGSLSLSCAASGSTFGRYVMGWDRQAPGTERELVAAISYSGGRSYYADSVKGRFTMSRDNAKNTVYLQMNSLKPEDTAVYYCNAYGIDTGDYWGQGTQVTVSS | high polyreactivity |
